Drawing on patent US20190161517A1 (ENSOL BIOSCIENCES, published 2019), this text covers Kd for two molecules.

For the test, the target named is T1, extracellular domain recombinant protein RAGE (11629-H08H, Sino Biological Inc.) (UniProt Q15109 23-342, labeled with RED fluorescent dye NT-647-NHS (sites not given)).
T1 construct: extracellular domain; Bought protein; also called Receptor for Advanced Glycation End products
The test is described as follows: MST (Microscale Thermophoresis), NT-647-labeled RAGE extracellular domain, peptide titrated 50 uM to 1.52 nM, mean of three runs. On the procedure:
Specifically, the binding capacity of the peptide of Example 1 or 2 to RAGE was measured using MST (Microscale Thermophoresis).
Using a kit {Monolith NT™ Protein Labeling Kit RED-NHS (L001, NanoTemper Technologies)}, an extracellular domain recombinant protein RAGE (11629-H08H, Sino Biological Inc.) was bound to a RED fluorescent dye NT-647-NHS and then purified. Thereafter, a RAGE solution in which the concentration of the RED fluorescent dye NT-647-NHS labeled RAGE in an MST buffer (50 mM Tris-HCl pH 7.4, 150 mM NaCl, 10 mM MgCl₂, 0.05% Tween-20) solution was 20 μM was prepared. Also, a peptide solution was prepared in a 16-step dilution series, in which dilution was repeated with the MST buffer until the concentration of the peptide of Example 1 or Example 2 became 1.52 nM starting from 50 μM. Thereafter, the RAGE solution and the peptide solution were mixed in amounts of 100 μl each, injected into a capillary tube and then placed in the order of concentration in a Monolith NT. 115 tray (G009, NanoTemper technologies). The software was operated in accordance with the Monolith NT. 115 operating method. The same procedure was repeated three times, and the mean value of Kd (dissociation constant) was obtained.
A general note: Microscale thermophoresis detects binding through changes in fluorescence in a small temperature gradient.

T1 sequence (Q15109 23-342 limits assumed): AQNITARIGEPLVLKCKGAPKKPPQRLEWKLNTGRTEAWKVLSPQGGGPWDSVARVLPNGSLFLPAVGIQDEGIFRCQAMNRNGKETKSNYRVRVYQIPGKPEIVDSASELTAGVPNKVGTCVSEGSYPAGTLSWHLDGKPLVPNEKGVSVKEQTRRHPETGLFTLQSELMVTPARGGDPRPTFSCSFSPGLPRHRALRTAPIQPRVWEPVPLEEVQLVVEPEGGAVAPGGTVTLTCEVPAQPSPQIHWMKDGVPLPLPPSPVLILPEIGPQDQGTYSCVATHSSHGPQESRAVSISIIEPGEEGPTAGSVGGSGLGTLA

B1: peptide of Example 1 (DGEFF) (peptide)
peptide: DGEFF
notes: Synthetic peptide made by AnyGen Co., Ltd
Consider B1, for which the Kd worked out at 76.9 nM.

B2: peptide of Example 2 (DGEF) (peptide)
peptide: DGEF
notes: as for B1
For B2, the Kd stood at 80.9 nM.

The term Kd denotes the concentration at which binding is half-saturated.
